B1: Ubiquitin domain-containing protein DSK2 (Saccharomyces cerevisiae), P48510 (parent)
chain: MSLNIHIKSGQDKWEVNVAPESTVLQFKEAINKANGIPVANQRLIYSGKILKDDQTVESYHIQDGHSVHLVKSQPKPQTASAAGANNATATGAAAGTGATPNMSSGQSAGFNPLADLTSARYAGYLNMPSADMFGPDGGALNNDSNNQDELLRMMENPIFQSQMNEMLSNPQMLDFMIQSNPQLQAMGPQARQMLQSPMFRQMLTNPDMIRQSMQFARMMDPNAGMGSAGGAASAFPAPGGDAPEEGSNTNTTSSSNTGNNAGTNAGTNAGANTAANPFASLLNPALNPFANAGNAASTGMPAFDPALLASMFQPPVQASQAEDTRPPEERYEHQLRQLNDMGFFDFDRNVAALRRSGGSVQGALDSLLNGDV
partner: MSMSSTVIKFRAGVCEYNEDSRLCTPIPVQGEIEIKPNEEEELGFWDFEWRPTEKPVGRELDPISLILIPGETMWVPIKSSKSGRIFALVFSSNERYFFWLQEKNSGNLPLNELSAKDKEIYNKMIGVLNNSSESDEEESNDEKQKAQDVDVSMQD
B2: UV excision repair protein RAD23 (Saccharomyces cerevisiae), P32628 (parent)
chain: MVSLTFKNFKKEKVPLDLEPSNTILETKTKLAQSISCEESQIKLIYSGKVLQDSKTVSECGLKDGDQVVFMVSQKKSTKTKVTEPPIAPESATTPGRENSTEASPSTDASAAPAATAPEGSQPQEEQTATTERTESASTPGFVVGTERNETIERIMEMGYQREEVERALRAAFNNPDRAVEYLLMGIPENLRQPEPQQQTAAAAEQPSTAATTAEQPAEDDLFAQAAQGGNASSGALGTTGGATDAAQGGPPGSIGLTVEDLLSLRQVVSGNPEALAPLLENISARYPQLREHIMANPEVFVSMLLEAVGDNMQDVMEGADDMVEGEDIEVTGEAAAAGLGQGEGEGSFQVDYTPEDDQAISRLCELGFERDLVIQVYFACDKNEEAAANILFSDHAD
B3: Ubiquitin domain-containing protein DSK2b (Arabidopsis thaliana (Mouse-ear cress)), Q9SII8 (parent)
chain: MGGEGDSSQPQSGEGEAVAVNIRCSNGTKFSVKTSLDSTVESFKELVAQSSDVPANQQRLIYKGRILKDDQTLLSYGLQADHTIHMVRGSAPSSAPPPAPAASQTTAPSVTRGVGSDNSSNLGGASPGESLFPGLGFNPLGGGNAMSGLFGAGLPDLVQTQQQLAQNPNMIRDMMNTPAIQNLMNNPEFMRSMIMNNPQMRELVDRNPELGHVLNDPSILRQTLEAARNPELMREMMRNTDRAMSNIESMPEGFNMLRRMYENVQEPLMNATTMSGNAGNNTGSNPFAALLGNQGVTTQGSDASNNSSTPNAGTGTIPNANPLPNPWGATGGQTTAPGRTNVGGDARSPGLGGLGGLGSLGGLGGLGMLGADSPLGATPDASQLSQLLQNPAISQMMQSVFSNPQYMNQLMSLNPQLRSMLDSNPQLREMMQNPDFLRQFSSPEMMQQMMTLQQSLSQNRNTASQDAGQTGAATGNNGGLDLLMNMFGSLGAGGLSGTNQSNVPPEERYATQLQQLQEMGFYDRAENIRALLATNGNVNAAVERLLGSIGQ
B4: 26S proteasome regulatory subunit RPN13 (Saccharomyces cerevisiae), O13563 (parent)
chain: B1 partner
B5: 26S proteasome regulatory subunit RPN10 (Saccharomyces cerevisiae), P38886 (parent)
chain: MVLEATVLVIDNSEYSRNGDFPRTRFEAQIDSVEFIFQAKRNSNPENTVGLISGAGANPRVLSTFTAEFGKILAGLHDTQIEGKLHMATALQIAQLTLKHRQNKVQHQRIVAFVCSPISDSRDELIRLAKTLKKNNVAVDIINFGEIEQNTELLDEFIAAVNNPQEETSHLLTVTPGPRLLYENIASSPIILEEGSSGMGAFGGSGGDSDANGTFMDFGVDPSMDPELAMALRLSMEEEQQRQERLRQQQQQQDQPEQSEQPEQHQDK
partner: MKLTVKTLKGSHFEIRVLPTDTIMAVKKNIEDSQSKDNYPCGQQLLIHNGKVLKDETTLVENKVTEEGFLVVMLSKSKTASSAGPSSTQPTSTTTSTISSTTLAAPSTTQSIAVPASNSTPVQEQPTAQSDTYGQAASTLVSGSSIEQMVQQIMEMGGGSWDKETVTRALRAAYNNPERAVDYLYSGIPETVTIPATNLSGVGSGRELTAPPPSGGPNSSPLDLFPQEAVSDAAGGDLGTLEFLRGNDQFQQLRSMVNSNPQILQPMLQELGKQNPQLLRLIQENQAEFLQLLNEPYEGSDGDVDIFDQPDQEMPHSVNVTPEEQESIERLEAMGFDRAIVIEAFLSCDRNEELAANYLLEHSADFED
B6: DNA damage-inducible protein 1 (Saccharomyces cerevisiae), P40087 (parent)
chain: MDLTISNELTGEIYGPIEVSEDMALTDLIALLQADCGFDKTKHDLYYNMDILDSNRTQSLKELGLKTDDLLLIRGKISNSIQTDAATLSDEAFIEQFRQELLNNQMLRSQLILQIPGLNDLVNDPLLFRERLGPLILQRRYGGYNTAMNPFGIPQDEYTRLMANPDDPDNKKRIAELLDQQAIDEQLRNAIEYTPEMFTQVPMLYINIEINNYPVKAFVDTGAQTTIMSTRLAKKTGLSRMIDKRFIGEARGVGTGKIIGRIHQAQVKIETQYIPCSFTVLDTDIDVLIGLDMLKRHLACVDLKENVLRIAEVETSFLSEAEIPKSFQEGLPAPTSVTTSSDKPLTPTKTSSTLPPQPGAVPALAPRTGMGPTPTGRSTAGATTATGRTFPEQTIKQLMDLGFPRDAVVKALKQTNGNAEFAASLLFQ
B7: 26S proteasome regulatory subunit RPN10 (Saccharomyces cerevisiae), P38886 (parent)
chain: B5 chain
B8: 26S proteasome non-ATPase regulatory subunit 4 (Homo sapiens), P55036 (parent)
chain: MVLESTMVCVDNSEYMRNGDFLPTRLQAQQDAVNIVCHSKTRSNPENNVGLITLANDCEVLTTLTPDTGRILSKLHTVQPKGKITFCTGIRVAHLALKHRQGKNHKMRIIAFVGSPVEDNEKDLVKLAKRLKKEKVNVDIINFGEEEVNTEKLTAFVNTLNGKDGTGSHLVTVPPGPSLADALISSPILAGEGGAMLGLGASDFEFGVDPSADPELALALRVSMEEQRQRQEEEARRAAAASAAEAGIATTGTEDSDDALLKMTISQQEFGRTGLPDLSSMTEEEQIAYAMQMSLQGAEFGQAESADIDASSAMDTSEPAKEEDDYDVMQDPEFLQSVLENLPGVDPNNEAIRNAMGSLASQATKDGKKDKKEEDKK
partner: B5 partner
B9: 26S proteasome regulatory subunit RPN10 (Saccharomyces cerevisiae), P38886 (parent)
chain: B5 chain
partner: B3 chain
B10: 26S proteasome non-ATPase regulatory subunit 4 homolog (Arabidopsis thaliana (Mouse-ear cress)), P55034 (parent)
chain: MVLEATMICIDNSEWMRNGDYSPSRLQAQTEAVNLLCGAKTQSNPENTVGILTMAGKGVRVLTTPTSDLGKILACMHGLDVGGEINLTAAIQIAQLALKHRQNKNQRQRIIVFAGSPIKYEKKALEIVGKRLKKNSVSLDIVNFGEDDDEEKPQKLEALLTAVNNNDGSHIVHVPSGANALSDVLLSTPVFTGDEGASGYVSAAAAAAAAGGDFDFGVDPNIDPELALALRVSMEEERARQEAAAKKAADEAGQKDKDGDTASASQETVARTTDKNAEPMDEDSALLDQAIAMSVGDVNMSEAADEDQDLALALQMSMSGEESSEATGAGNNLLGNQAFISSVLSSLPGVDPNDPAVKELLASLPDESKRTEEEESSSKKGEDEKK
partner: B3 chain
B11: Ubiquitin domain-containing protein DSK2 (Saccharomyces cerevisiae), P48510 (parent)
chain: B1 chain
partner: B5 chain
B12: 26S proteasome non-ATPase regulatory subunit 4 (Homo sapiens), P55036 (parent)
chain: B8 chain
partner: B3 chain

Variants of: B1
Details: with rpn13_yeast RPN13, O13563

effect of a mutation on the interaction	Variant
disrupting interaction	L44A

Variants of: B1
Details: with rpn13_yeast RPN13, O13563
Remark: another data set of the same source

Variant	effect of a mutation on the interaction
L44A	disrupting interaction strength
I45A	disrupting interaction strength
L44A;I45A	disrupting interaction strength

Other lines, results leading:

effect of a mutation on the interaction	Variant
decreasing interaction strength	V71A
decreasing interaction strength	L70A
decreasing interaction strength	L70A;V71A

Variants of: B1
Details: with rpn13_yeast RPN13, O13563
Remark: another data set of the same source

effect of a mutation on the interaction	Variant
decreasing interaction	V71A

Variants of: B1
Details: with rpn13_yeast RPN13, O13563
Remark: another data set of the same source

effect of a mutation on the interaction	Variant
decreasing interaction	L70A

Variants of: B1
Details: with rpn13_yeast RPN13, O13563
Remark: another data set of the same source

effect of a mutation on the interaction	Variant
disrupting interaction	I45A

Variants of: B2
Details: with ubc_human UBC
Target sequence in this assay (P0CG48 whole entry, looked up): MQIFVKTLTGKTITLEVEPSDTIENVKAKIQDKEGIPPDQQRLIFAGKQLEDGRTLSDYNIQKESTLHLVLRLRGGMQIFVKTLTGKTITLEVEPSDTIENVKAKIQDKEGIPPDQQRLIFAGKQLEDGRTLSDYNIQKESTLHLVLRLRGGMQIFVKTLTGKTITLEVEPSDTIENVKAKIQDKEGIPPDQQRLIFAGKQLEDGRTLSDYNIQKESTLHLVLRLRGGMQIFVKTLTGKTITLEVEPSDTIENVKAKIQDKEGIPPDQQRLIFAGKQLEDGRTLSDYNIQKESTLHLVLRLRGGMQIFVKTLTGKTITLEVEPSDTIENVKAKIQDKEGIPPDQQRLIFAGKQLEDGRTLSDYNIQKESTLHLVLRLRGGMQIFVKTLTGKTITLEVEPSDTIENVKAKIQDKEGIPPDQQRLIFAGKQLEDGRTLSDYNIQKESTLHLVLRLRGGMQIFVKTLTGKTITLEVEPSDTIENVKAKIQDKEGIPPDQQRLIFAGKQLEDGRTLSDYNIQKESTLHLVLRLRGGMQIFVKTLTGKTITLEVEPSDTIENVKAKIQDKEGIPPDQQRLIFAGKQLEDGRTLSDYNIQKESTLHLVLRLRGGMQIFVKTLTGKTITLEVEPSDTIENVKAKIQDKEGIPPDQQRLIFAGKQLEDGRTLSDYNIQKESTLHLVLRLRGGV

effect of a mutation on the interaction	Variant
disrupting interaction strength	M158A;G159A;Y160A
disrupting interaction strength	M158A;G159A;Y160A;L367A;G368A;F369A
with no effect	L367A;G368A;F369A

Variants of: B2
Details: with ubc_human UBC
Remark: another data set of the same source
Target sequence in this assay (P0CG48 whole entry, looked up): as above

effect of a mutation on the interaction	Variant
decreasing interaction strength	M158A;G159A;Y160A

Variants of: B3
Details: with rpn13_arath RPN13, O48726
rpn13_arath RPN13, O48726, sequence (O48726 whole entry): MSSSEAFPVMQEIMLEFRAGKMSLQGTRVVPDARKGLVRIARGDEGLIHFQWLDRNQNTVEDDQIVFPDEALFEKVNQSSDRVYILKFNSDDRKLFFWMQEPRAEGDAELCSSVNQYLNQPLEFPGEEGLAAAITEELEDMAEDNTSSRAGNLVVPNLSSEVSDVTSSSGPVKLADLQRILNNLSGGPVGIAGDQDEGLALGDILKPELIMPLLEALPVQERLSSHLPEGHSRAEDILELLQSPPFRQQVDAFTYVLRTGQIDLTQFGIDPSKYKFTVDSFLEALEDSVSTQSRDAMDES

effect of a mutation on the interaction	Variant
disrupting interaction	I61A

Variants of: B4
Details: with dsk2_yeast DSK2, P48510

effect of a mutation on the interaction	Variant
disrupting interaction	E72Q

Variants of: B4
Details: with dsk2_yeast DSK2, P48510
Remark: another data set of the same source

effect of a mutation on the interaction	Variant
disrupting interaction	F91R

Variants of: B4
Details: with dsk2_yeast DSK2, P48510
Remark: another data set of the same source

effect of a mutation on the interaction	Variant
decreasing interaction	L43A

Variants of: B5
Details: with rd23a_arath RAD23A

effect of a mutation on the interaction	Variant
disrupting interaction strength	L228N;A229N;M230N;A231N;L232N

Variants of: B6
Details: with ubc_human UBC
Target sequence in this assay (P0CG48 whole entry, looked up): as the sequence (P0CG48 whole entry, looked up) above

effect of a mutation on the interaction	Variant
disrupting interaction strength	L401A;G402A

Variants of: B6
Details: with ubc_human UBC
Remark: another data set of the same source
Target sequence in this assay (P0CG48 whole entry, looked up): as above

effect of a mutation on the interaction	Variant
decreasing interaction strength	L401A;G402A

Variants of: B7
Details: with dsk2_yeast DSK2, P48510

effect of a mutation on the interaction	Variant
disrupting interaction strength	L228N;A229N;M230N;A231N;L232N

Variants of: B7
Details: with ubql2_human UBQLN2, Q9UHD9
ubql2_human UBQLN2, Q9UHD9, sequence (Q9UHD9 whole entry): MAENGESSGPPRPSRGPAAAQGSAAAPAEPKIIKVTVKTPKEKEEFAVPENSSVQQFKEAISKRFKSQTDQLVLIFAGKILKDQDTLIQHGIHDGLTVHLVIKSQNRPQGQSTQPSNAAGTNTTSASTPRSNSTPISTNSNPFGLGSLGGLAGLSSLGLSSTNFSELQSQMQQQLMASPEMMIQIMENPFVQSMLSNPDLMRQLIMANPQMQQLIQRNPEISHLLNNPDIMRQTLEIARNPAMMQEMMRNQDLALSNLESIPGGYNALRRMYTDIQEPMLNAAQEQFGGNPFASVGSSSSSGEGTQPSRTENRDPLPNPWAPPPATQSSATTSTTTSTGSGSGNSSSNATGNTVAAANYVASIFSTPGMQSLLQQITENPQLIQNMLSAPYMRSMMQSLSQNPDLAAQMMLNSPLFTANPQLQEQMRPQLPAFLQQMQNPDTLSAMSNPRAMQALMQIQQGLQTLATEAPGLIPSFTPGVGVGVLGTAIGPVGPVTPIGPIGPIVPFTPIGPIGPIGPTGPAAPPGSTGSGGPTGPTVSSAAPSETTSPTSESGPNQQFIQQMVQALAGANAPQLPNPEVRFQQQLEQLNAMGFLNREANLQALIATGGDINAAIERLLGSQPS

effect of a mutation on the interaction	Variant
disrupting interaction strength	L228N;A229N;M230N;A231N;L232N

Variants of: B8
Details: with rd23a_arath RAD23A

effect of a mutation on the interaction	Variant
with no effect	L216N;A217N;L218N;A219N;L220N
disrupting interaction strength	L216N;A217N;L218N;A219N;L220N;I287N;A288N;Y289N;A290N;M291N
disrupting interaction strength	I287N;A288N;Y289N;A290N;M291N

Variants of: B9
Details: with dsk2b_arath DSK2B

effect of a mutation on the interaction	Variant
disrupting interaction strength	L228N;A229N;M230N;A231N;L232N

Variants of: B10
Details: with dsk2b_arath DSK2B

Variant	effect of a mutation on the interaction
L226D;A227D;L228D;A229D;L230D	disrupting interaction strength
L286N;L287N;Q289N;A290D;L310N;A311N;L312N;A313D;L314N	with no effect

Now from value to variant:

effect of a mutation on the interaction	Variant
with no effect	L286N;L287N;Q289N;A290D
with no effect	L310N;A311N;L312N;A313D;L314N

Variants of: B11
Details: with rpn10_yeast RPN10, P38886

effect of a mutation on the interaction	Variant
with no effect	V71A
disrupting interaction strength	L70A;V71A

Variants of: B11
Details: with rpn10_yeast RPN10, P38886
Remark: another data set of the same source

effect of a mutation on the interaction	Variant
disrupting interaction	V71A

Variants of: B12
Details: with dsk2b_arath DSK2B

effect of a mutation on the interaction	Variant
with no effect	L216N;A217N;L218N;A219N;L220N
